Numbering of substitutions follows the chain as printed.
B1: 409 (protein)
chain: LDNGLARTPTMGWLHWERFMCNLDCQEEPDSCISEKLFMEMAERMVSEGWKDAGYEYLCIDDCWMAPQRDSEGRLQADPQRFPHGIRQLANYVHSKGLKLGIYADVGNKTCAGFPGSFGYYDIDAQTFADWGVDLLKFDGCYCDSLENLADGYKHMSLALNRTGHSIVYSCEWPLYMWPFQKPNYTEIRQYCNHWRNFADIDDSWKSIKSILDWTSRNQERIVDVAGPGGWNDPDMLVIGNFGLSWDQQVTQMALWAIMAAPLFMSNDLRHISPQAKALLQDKDVIAINQDPLGKQGYQLRKGDNFEVWERPLSGDAWAVAIINRQEIGGPRSYTIPVASLGKGVACNPACFITQLLPVKRQLGFYNWTSRLKSHINPTGTVLLQLENTMQMSLKDLL
modifications: Synthetic Polypeptide sequence of Variant No. 409 of mature Human GLA
B2: 411 (protein)
chain: B1 chain with H165R, S166A
modifications: Synthetic Polypeptide sequence of Variant No. 411 of mature Human GLA
B3: 363 (protein)
chain: B1 chain with S47D, H165R
modifications: Synthetic Polypeptide sequence of Variant No. 363 of mature Human GLA
B4: 412 (protein)
chain: B1 chain with H165R, S166H
modifications: Synthetic Polypeptide sequence of Variant No. 412 of mature Human GLA
B5: 420 (protein)
chain: B1 chain with H165R, S166T
modifications: Synthetic Polypeptide sequence of Variant No. 420 of mature Human GLA
B6: 419 (protein)
chain: B1 chain with H165R, S166E
modifications: Synthetic Polypeptide sequence of Variant No. 419 of mature Human GLA
B7: 423 (protein)
chain: B1 chain with R162A, H165R
modifications: Synthetic Polypeptide sequence of Variant No. 423 of mature Human GLA
B8: 410 (protein)
chain: B1 chain with R162H, H165R
modifications: Synthetic Polypeptide sequence of Variant No. 410 of mature Human GLA
B9: 414 (protein)
chain: B1 chain with L158Q, H165R
modifications: Synthetic Polypeptide sequence of Variant No. 414 of mature Human GLA
B10: 422 (protein)
chain: B1 chain with L158G, H165R
modifications: Synthetic Polypeptide sequence of Variant No. 422 of mature Human GLA
B11: 421 (protein)
chain: B1 chain with R162Q, H165R
modifications: Synthetic Polypeptide sequence of Variant No. 421 of mature Human GLA
B12: 416 (protein)
chain: B1 chain with R162G, H165R
modifications: Synthetic Polypeptide sequence of Variant No. 416 of mature Human GLA
B13: 417 (protein)
chain: B1 chain with R162S, H165R
modifications: Synthetic Polypeptide sequence of Variant No. 417 of mature Human GLA
B14: 418 (protein)
chain: B1 chain with N161E, H165R
modifications: Synthetic Polypeptide sequence of Variant No. 418 of mature Human GLA
B15: 415 (protein)
chain: B1 chain with H165R, S166D
modifications: Synthetic Polypeptide sequence of Variant No. 415 of mature Human GLA

assay: HTP-analysis of yeast culture supernatants, no challenge (MUGal hydrolysis); format: biochemical; settings: activity of the variant/activity of Rd4BB (SEQ ID NO: 15)
Method in brief: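 GLA variants expressed in yeast INVSc1, secreted into SD-Ura broth over 66-84 h at 30° C; clarified supernatants tested without challenge. Supernatant mixed with McIlvaine buffer pH 4.8 and 2 mM MUGal (citrate/KCl, pH 4.6), 37° C for 30-180 min, carbonate-quenched, fluorescence Ex 355/Em 448 nm.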

| Molecule | Relative Activity of GLA Variants After No Challenge (NC) |
| --- | --- |
| B1 | + (0.5 to 1.5 relative activity over Rd4BB (SEQ ID NO: 15)) |
| B2 | + (0.5 to 1.5 relative activity over Rd4BB (SEQ ID NO: 15)) |
| B3 | + (0.5 to 1.5 relative activity over Rd4BB (SEQ ID NO: 15)) |
| B4 | + (0.5 to 1.5 relative activity over Rd4BB (SEQ ID NO: 15)) |
| B5 | + (0.5 to 1.5 relative activity over Rd4BB (SEQ ID NO: 15)) |
| B6 | + (0.5 to 1.5 relative activity over Rd4BB (SEQ ID NO: 15)) |
| B7 | + (0.5 to 1.5 relative activity over Rd4BB (SEQ ID NO: 15)) |
| B8 | + (0.5 to 1.5 relative activity over Rd4BB (SEQ ID NO: 15)) |
| B9 | + (0.5 to 1.5 relative activity over Rd4BB (SEQ ID NO: 15)) |
| B10 | + (0.5 to 1.5 relative activity over Rd4BB (SEQ ID NO: 15)) |
| B11 | + (0.5 to 1.5 relative activity over Rd4BB (SEQ ID NO: 15)) |
| B12 | + (0.5 to 1.5 relative activity over Rd4BB (SEQ ID NO: 15)) |
| B13 | + (0.5 to 1.5 relative activity over Rd4BB (SEQ ID NO: 15)) |
| B14 | + (0.5 to 1.5 relative activity over Rd4BB (SEQ ID NO: 15)) |
| B15 | + (0.5 to 1.5 relative activity over Rd4BB (SEQ ID NO: 15)) |

assay: HTP-analysis of supernatants pretreated with acid (MUGal hydrolysis); format: biochemical; settings: activity of the variant/activity of Rd4BB (SEQ ID NO: 15); challenge at pH 3.7
Method in brief: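 MUGal hydrolysis was tracked by fluorescence (Ex 355 nm, Em 448 nm) after a 30-180 min reaction at 37° C. in pH 4.8 McIlvaine/citrate buffer, stopped with 1 M sodium carbonate. Beforehand, yeast (INVSc1) culture supernatants carrying GLA variants were held 1-3 h at 37° C. in acidic McIlvaine buffer, pH 3.3-4.3.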

| Molecule | Relative Activity of GLA Variants After Challenge at pH 3.7 |
| --- | --- |
| B1 | + (0.5 to 1.5 relative activity over Rd4BB (SEQ ID NO: 15)) |
| B2 | + (0.5 to 1.5 relative activity over Rd4BB (SEQ ID NO: 15)) |
| B3 | + (0.5 to 1.5 relative activity over Rd4BB (SEQ ID NO: 15)) |
| B4 | ++ (>1.5 to 2.5 relative activity over Rd4BB (SEQ ID NO: 15)) |
| B5 | ++ (>1.5 to 2.5 relative activity over Rd4BB (SEQ ID NO: 15)) |
| B6 | + (0.5 to 1.5 relative activity over Rd4BB (SEQ ID NO: 15)) |
| B7 | + (0.5 to 1.5 relative activity over Rd4BB (SEQ ID NO: 15)) |
| B8 | + (0.5 to 1.5 relative activity over Rd4BB (SEQ ID NO: 15)) |
| B9 | + (0.5 to 1.5 relative activity over Rd4BB (SEQ ID NO: 15)) |
| B10 | + (0.5 to 1.5 relative activity over Rd4BB (SEQ ID NO: 15)) |
| B11 | + (0.5 to 1.5 relative activity over Rd4BB (SEQ ID NO: 15)) |
| B12 | + (0.5 to 1.5 relative activity over Rd4BB (SEQ ID NO: 15)) |
| B13 | + (0.5 to 1.5 relative activity over Rd4BB (SEQ ID NO: 15)) |
| B14 | + (0.5 to 1.5 relative activity over Rd4BB (SEQ ID NO: 15)) |
| B15 | + (0.5 to 1.5 relative activity over Rd4BB (SEQ ID NO: 15)) |

assay: HTP-analysis of supernatants pretreated with base (MUGal hydrolysis); format: biochemical; settings: activity of the variant/activity of Rd4BB (SEQ ID NO: 15); challenge at pH 9.65
Method in brief: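 Supernatants from INVSc1 yeast expressing GLA variants (SD-Ura, 66-84 h, 30° C) were mixed with McIlvaine buffer pH 7.0-8.2 or 200 mM sodium bicarbonate pH 9.1-9.7 and held 1-18 h at 37° C. Residual activity was then measured on MUGal at pH 4.8/4.3, 37° C, 30-180 min, by fluorescence (Ex 355/Em 448 nm).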

| Molecule | Relative Activity of GLA Variants After Challenge at pH 9.65 |
| --- | --- |
| B1 | − (<0.5 relative activity over Rd4BB (SEQ ID NO: 15)) |
| B2 | + (0.5 to 1.5 relative activity over Rd4BB (SEQ ID NO: 15)) |
| B3 | + (0.5 to 1.5 relative activity over Rd4BB (SEQ ID NO: 15)) |
| B4 | + (0.5 to 1.5 relative activity over Rd4BB (SEQ ID NO: 15)) |
| B5 | − (<0.5 relative activity over Rd4BB (SEQ ID NO: 15)) |
| B6 | + (0.5 to 1.5 relative activity over Rd4BB (SEQ ID NO: 15)) |
| B7 | + (0.5 to 1.5 relative activity over Rd4BB (SEQ ID NO: 15)) |
| B8 | − (<0.5 relative activity over Rd4BB (SEQ ID NO: 15)) |
| B9 | + (0.5 to 1.5 relative activity over Rd4BB (SEQ ID NO: 15)) |
| B10 | − (<0.5 relative activity over Rd4BB (SEQ ID NO: 15)) |
| B11 | − (<0.5 relative activity over Rd4BB (SEQ ID NO: 15)) |
| B12 | − (<0.5 relative activity over Rd4BB (SEQ ID NO: 15)) |
| B13 | − (<0.5 relative activity over Rd4BB (SEQ ID NO: 15)) |
| B14 | − (<0.5 relative activity over Rd4BB (SEQ ID NO: 15)) |
| B15 | + (0.5 to 1.5 relative activity over Rd4BB (SEQ ID NO: 15)) |

Source: patent US11278600B2, “Human alpha-galactosidase variants” (Codexis, Inc., priority 2014, dated 2022)
